Experimental findings from patent US20170298096A1 (CANIMGUIDE THERAPEUTICS, published 2017) are described below.

T1: His-tagged P3028 (human, not fully specified)
T1 construct: the tag is put first after 'PGE73=His-tag-P3028'; also called PGE73; not shown: His-tag
T1 peptide: {His‑tag}-VFDEFKPLVEEPQNLIK

B1: P28R K2Q (peptide)
peptide: KQLDTFFVKLSLFTER
B2: P28R L10D (peptide)
peptide: KKLDTFFVKDSLFTER
B3: P28R K9V (peptide)
peptide: KKLDTFFVVLSLFTER
B4: P28R L3T (peptide)
peptide: KKTDTFFVKLSLFTER
B5: P28R L3F (peptide)
peptide: KKFDTFFVKLSLFTER
B6: P28R L3H (peptide)
peptide: KKHDTFFVKLSLFTER
B7: P28R K9Q (peptide)
peptide: KKLDTFFVQLSLFTER
B8: P28R K9I (peptide)
peptide: KKLDTFFVILSLFTER
B9: P28R K2R (peptide)
peptide: KRLDTFFVKLSLFTER
B10: P28R L3Y (peptide)
peptide: KKYDTFFVKLSLFTER
B11: P28R L3S (peptide)
peptide: KKSDTFFVKLSLFTER
B12: P28R L3D (peptide)
peptide: KKDDTFFVKLSLFTER
B13: P28R L10I (peptide)
peptide: KKLDTFFVKISLFTER
B14: P28R K9L (peptide)
peptide: KKLDTFFVLLSLFTER
B15: P28R K2V (peptide)
peptide: KVLDTFFVKLSLFTER
B16: P28R L3Q (peptide)
peptide: KKQDTFFVKLSLFTER
B17: P28R K2T (peptide)
peptide: KTLDTFFVKLSLFTER
B18: P28R L10H (peptide)
peptide: KKLDTFFVKHSLFTER
B19: P28R K9F (peptide)
peptide: KKLDTFFVFLSLFTER
B20: P28R L3M (peptide)
peptide: KKMDTFFVKLSLFTER
B21: P28R L10K (peptide)
peptide: KKLDTFFVKKSLFTER
B22: P28R K9T (peptide)
peptide: KKLDTFFVTLSLFTER
B23: P28R L10E (peptide)
peptide: KKLDTFFVKESLFTER
B24: P28R K9N (peptide)
peptide: KKLDTFFVNLSLFTER
B25: P28R L3A (peptide)
peptide: KKADTFFVKLSLFTER
B26: P28R L3E (peptide)
peptide: KKEDTFFVKLSLFTER
B27: P28R L10A (peptide)
peptide: KKLDTFFVKASLFTER
B28: P28R L3N (peptide)
peptide: KKNDTFFVKLSLFTER
B29: P28R K2W (peptide)
peptide: KWLDTFFVKLSLFTER
B30: P28R K9M (peptide)
peptide: KKLDTFFVMLSLFTER
B31: P28R K2Y (peptide)
peptide: KYLDTFFVKLSLFTER
B32: P28R K9E (peptide)
peptide: KKLDTFFVELSLFTER
B33: P28R K9Y (peptide)
peptide: KKLDTFFVYLSLFTER
B34: P28R L3R (peptide)
peptide: KKRDTFFVKLSLFTER
B35: P28R L10F (peptide)
peptide: KKLDTFFVKFSLFTER
B36: P28R K9R (peptide)
peptide: KKLDTFFVRLSLFTER
B37: P28R L3I (peptide)
peptide: KKIDTFFVKLSLFTER
B38: P28R L3V (peptide)
peptide: KKVDTFFVKLSLFTER
B39: P28R L3K (peptide)
peptide: KKKDTFFVKLSLFTER
B40: P28R K2S (peptide)
peptide: KSLDTFFVKLSLFTER
B41: P28R L3W (peptide)
peptide: KKWDTFFVKLSLFTER
B42: P28R K9S (peptide)
peptide: KKLDTFFVSLSLFTER
B43: P28R K9A (peptide)
peptide: KKLDTFFVALSLFTER
B44: P28R K9D (peptide)
peptide: KKLDTFFVDLSLFTER
B45: P28R K9W (peptide)
peptide: KKLDTFFVWLSLFTER
B46: P28R L10M (peptide)
peptide: KKLDTFFVKMSLFTER
B47: P28R K9H (peptide)
peptide: KKLDTFFVHLSLFTER

No end group written: not given here.

The experiment addresses T1, His-tagged P3028. Kind of experiment: chip ELISA. (In general: ELISA stands for enzyme-linked immunosorbent assay.)
B1 displayed an ELISA signal of 350.
Then B2, with 102.
Consider B3, for which the ELISA signal worked out at 248.
Under B4 stands 451.
Then B5, with 393; and B6, with 477; and B7, with 330.
Then B8, with 190; and B9, with 417; and B10, with 344.
Molecule B11 returned an ELISA signal of 393.
As for B12, the ELISA signal is 492.
B13 yielded an ELISA signal of 415.
Turning to B14, the ELISA signal turned out to be 166.
Then B15, with 317; and B16, with 473; and B17, with 331.
Then B18, with 293; and B19, with 174.
Under B20 stands 460; under B21, 285; under B22, 347.
The molecule B23 came in with an ELISA signal of 81.
Under B24 stands 256; under B25, 427.
Under B26 stands 528.
Then B27, with 426; and B28, with 374; and B29, with 304.
Regarding B30, the ELISA signal came out at 283.
Then B31, with 301.
For B32, the ELISA signal stood at 240.
Under B33 stands 198.
Under B34 stands 370.
Then B35, with 403; and B36, with 374.
In turn, B37 returned an ELISA signal of 454.
The molecule B38 yielded an ELISA signal of 377.
Under B39 stands 386; under B40, 281.
Then B41, with 341.
Then B42, with 274; and B43, with 191.
As for B44, the ELISA signal was found to be 149.
Molecule B45 came in with an ELISA signal of 245.
The molecule B46 registered an ELISA signal of 460.
Under B47 stands 306.
